Values joined by “and” are separate entries in the source; they are usually repeats but may differ in a detail not shown here. Equal values may be shown once.
Target: T1, Escherichia coli GroEL chaperone (Escherichia coli, UniProt P0A6F5 2-548)
T1 construct: GroEL chaperonin, Escherichia coli; monomer band at 57 kDa, native 14-mer of 800 kDa; also called 14-mer GroEL; source: expressed and purified as previously described; copies: 14
Experiment: native gel or EMSA; BN-PAGE after incubation of unfolded gp23 (11.4 µM) with GroEL (0.8 µM) in 50 mM Tris pH 7.5, 50 mM KCl, MgCl2, 1 mM ADP, 10 min at RT; subunits in the bands quantified by iBAQ
Conditions: both partners purified

T1 sequence (P0A6F5 2-548): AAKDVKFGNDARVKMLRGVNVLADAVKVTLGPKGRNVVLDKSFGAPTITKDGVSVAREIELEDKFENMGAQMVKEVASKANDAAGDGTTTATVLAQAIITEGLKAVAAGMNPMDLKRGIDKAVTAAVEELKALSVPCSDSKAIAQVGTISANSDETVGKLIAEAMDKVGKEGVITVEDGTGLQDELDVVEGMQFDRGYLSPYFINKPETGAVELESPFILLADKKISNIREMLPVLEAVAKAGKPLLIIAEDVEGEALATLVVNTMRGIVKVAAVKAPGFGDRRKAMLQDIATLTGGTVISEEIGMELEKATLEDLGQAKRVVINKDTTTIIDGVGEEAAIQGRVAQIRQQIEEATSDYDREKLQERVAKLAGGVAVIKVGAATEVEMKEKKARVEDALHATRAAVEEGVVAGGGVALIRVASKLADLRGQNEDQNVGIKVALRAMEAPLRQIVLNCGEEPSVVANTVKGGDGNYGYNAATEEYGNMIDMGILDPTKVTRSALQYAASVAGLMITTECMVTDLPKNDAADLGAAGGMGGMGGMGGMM

B1: bacteriophage T4 capsid protein (gp23) (natural protein, UniProt P04535 1-521, looked up)
chain: MTIKTKAELLNKWKPLLEGEGLPEIANSKQAIIAKIFENQEKDFQTAPEYKDEKIAQAFGSFLTEAEIGGDHGYNATNIAAGQTSGAVTQIGPAVMGMVRRAIPNLIAFDICGVQPMNSPTGQVFALRAVYGKDPVAAGAKEAFHPMYGPDAMFSGQGAAKKFPALAASTQTTVGDIYTHFFQETGTVYLQASVQVTIDAGATDAAKLDAEIKKQMEAGALVEIAEGMATSIAELQEGFNGSTDNPWNEMGFRIDKQVIEAKSRQLKAAYSIELAQDLRAVHGMDADAELSGILATEIMLEINREVVDWINYSAQVGKSGMTLTPGSKAGVFDFQDPIDIRGARWAGESFKALLFQIDKEAVEIARQTGRGEGNFIIASRNVVNVLASVDTGISYAAQGLATGFSTDTTKSVFAGVLGGKYRVYIDQYAKQDYFTVGYKGPNEMDAGIYYAPYVALTPLRGSDPKNFQPVMGFKTRYGIGINPFAESAAQAPASRIQSGMPSILNSLGKNAYFRRVYVKGI
notes: major capsid protein gp23 of bacteriophage T4, printed size 56 kDa; Used as an unfolded substrate of GroEL; also called major capsid protein gp23; unfolded gp23; source: expressed and purified as previously described; unfolded in 8 M urea for one hour at RT
stoichiometry N: 1 and 2
